Data from paper PMC5175368.

Molecular target: PA63 (cleaved protective antigen) (Bacillus anthracis) (UniProt P13423)
Test: filter binding
Conditions: N15 and N23 = AEGIS dP

PA63 (cleaved protective antigen) (Bacillus anthracis), sequence (P13423 197-764): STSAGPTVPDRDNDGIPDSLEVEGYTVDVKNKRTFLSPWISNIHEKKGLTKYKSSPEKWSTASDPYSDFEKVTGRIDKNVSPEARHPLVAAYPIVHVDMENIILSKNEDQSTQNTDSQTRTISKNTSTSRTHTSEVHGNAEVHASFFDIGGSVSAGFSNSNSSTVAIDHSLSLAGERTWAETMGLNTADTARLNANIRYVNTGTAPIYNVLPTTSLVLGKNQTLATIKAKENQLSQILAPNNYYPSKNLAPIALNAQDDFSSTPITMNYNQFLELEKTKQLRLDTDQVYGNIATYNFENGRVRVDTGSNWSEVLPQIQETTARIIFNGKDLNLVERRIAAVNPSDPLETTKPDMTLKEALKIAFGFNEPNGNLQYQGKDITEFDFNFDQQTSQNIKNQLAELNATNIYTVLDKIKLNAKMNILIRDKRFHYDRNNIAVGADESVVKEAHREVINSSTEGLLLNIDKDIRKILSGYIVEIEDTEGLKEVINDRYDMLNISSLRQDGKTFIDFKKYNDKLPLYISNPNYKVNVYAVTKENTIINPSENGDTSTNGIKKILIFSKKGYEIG

## CGTGTAAACCATGGNGTGAGTGNGTAGGTGTCCTGAGGAGGT [PA1T4A6A7]
  Kd: 2.29 µM
